The test concerns the target H4K16ac nucleosome. The experiment in a line: EMSA. The note with it: chain shown with the change.

B1: Sir3 BAH domain (construct 1–214), P06701 D205N (protein)
chain: MAKTLKDLDGWQVIITDDQGRVIDDNNRRRSRKRGGENVFLKRISDGLSFGKGESVIFNDNVTETYSVYLIHEIRLNTLNNVVEIWVFSYLRWFELKPKLYYEQFRPDLIKEDHPLEFYKDKFFNEVNKSELYLTAELSEIWLKDFIAVGQILPESQWNDSSIDKIEDRDFLVRYACEPTAEKFVPIDIFQIIRRVKEMEPKQSNEYLKRVSVP
As to B1, the Kd (as a rule, the free concentration of one partner at which half of the binding sites on the other are occupied at equilibrium, for simple one-to-one binding) was determined as 810 nM.

These data come from publication PMC6602975.
